Experiments:
Experiment in all cases: affinity purification with mass spectrometry; ESK1 antibody cross-linked to Protein A/G beads as bait; lysate of primary human liver tissue (0.5% IGEPAL 630, 50 mM Tris pH 8.0, 150 mM NaCl), at least 5 h at 4 °C; washes with 150 mM NaCl, 450 mM NaCl and no salt; peptides eluted with 10% acetic acid, 5 kDa filter, LC-MS2; enrichment against the MAGE-A4 antibody as control; triplicates
Details in all cases: one partner purified
[1] = target: T1, HLA-A*02:01 in complex with peptide SET_(150-158) (…) (Homo sapiens, HLA-A*02:01)
T1 construct: HLA class I heavy chain, allele HLA-A*02:01, human; beta-2-microglobulin, human; The presenting allele is assigned by NetMHCpan 4.1 prediction (rank <= 2); source: peptide pulsed on T2 cells (JNFAT assay); copies: + +

[2] = target: T2, HLA-A*02:01 in complex with peptide USP9Y_(1674-1682) (…) (Homo sapiens, HLA-A*02:01)
T2 construct: HLA class I heavy chain, allele HLA-A*02:01, human; beta-2-microglobulin, human; The presenting allele is assigned by NetMHCpan 4.1 prediction (rank <= 2); source: peptide pulsed on T2 cells (JNFAT assay); copies: + +

[3] = target: T3, HLA-A*02:01 in complex with peptide SF3B4_(78-86) (…) (Homo sapiens, HLA-A*02:01)
T3 construct: HLA class I heavy chain, allele HLA-A*02:01, human; beta-2-microglobulin, human; Splicing factor 3B subunit 4, human, residues 78-86; The presenting allele is assigned by NetMHCpan 4.1 prediction (rank <= 2); source: peptide pulsed on T2 cells (JNFAT assay); copies: + +

[4] = target: T4, HLA-A*02:01 in complex with peptide RBM4B_(59-67) (…) (Homo sapiens, HLA-A*02:01)
T4 construct: HLA class I heavy chain, allele HLA-A*02:01, human; beta-2-microglobulin, human; The presenting allele is assigned by NetMHCpan 4.1 prediction (rank <= 2); also called RMB4B_(59-67); source: peptide pulsed on T2 cells (JNFAT assay); copies: + +

[5] = target: T5, HLA-A*02:01 in complex with peptide ILF2_(127-135) (…) (Homo sapiens, HLA-A*02:01)
T5 construct: HLA class I heavy chain, allele HLA-A*02:01, human; beta-2-microglobulin, human; The presenting allele is assigned by NetMHCpan 4.1 prediction (rank <= 2); source: peptide pulsed on T2 cells (JNFAT assay); copies: + +

[6] = target: T6, HLA-A*02:01 in complex with peptide CRYL1_(130-138) (…) (Homo sapiens, HLA-A*02:01)
T6 construct: HLA class I heavy chain, allele HLA-A*02:01, human; beta-2-microglobulin, human; The presenting allele is assigned by NetMHCpan 4.1 prediction (rank <= 2); source: peptide pulsed on T2 cells (JNFAT assay); copies: + +

[7] = target: T7, HLA-A*02:01 in complex with peptide CYP2C8_(59-67) (…) (Homo sapiens, HLA-A*02:01)
T7 construct: HLA class I heavy chain, allele HLA-A*02:01, human; beta-2-microglobulin, human; Cytochrome P450 2C8, human, residues 59-67; The presenting allele is assigned by NetMHCpan 4.1 prediction (rank <= 2); source: peptide pulsed on T2 cells (JNFAT assay); copies: + +

[8] = target: T8, HLA-A*02:01 in complex with peptide MSMO1_(164-172) (…) (Homo sapiens, HLA-A*02:01)
T8 construct: HLA class I heavy chain, allele HLA-A*02:01, human; beta-2-microglobulin, human; The presenting allele is assigned by NetMHCpan 4.1 prediction (rank <= 2); source: peptide pulsed on T2 cells (JNFAT assay); copies: + +

[9] = target: T9, HLA-A*02:01 in complex with peptide PLG_(92-100) (…) (Homo sapiens, HLA-A*02:01)
T9 construct: HLA class I heavy chain, allele HLA-A*02:01, human; beta-2-microglobulin, human; Plasminogen, human, residues 92-100; The presenting allele is assigned by NetMHCpan 4.1 prediction (rank <= 2); source: peptide pulsed on T2 cells (JNFAT assay); copies: + +

[10] = target: T10, HLA-A*02:01 in complex with peptide HNRNPA1_(15-23) (…) (Homo sapiens, HLA-A*02:01)
T10 construct: HLA class I heavy chain, allele HLA-A*02:01, human; beta-2-microglobulin, human; Heterogeneous nuclear ribonucleoprotein A1, human, residues 15-23; The presenting allele is assigned by NetMHCpan 4.1 prediction (rank <= 2; printed rank 1.625); source: peptide pulsed on T2 cells (JNFAT assay); copies: + +

[11] = target: T11, HLA-A*02:01 in complex with peptide MAF_(116-124) (…) (Homo sapiens, HLA-A*02:01)
T11 construct: HLA class I heavy chain, allele HLA-A*02:01, human; beta-2-microglobulin, human; The presenting allele is assigned by NetMHCpan 4.1 prediction (rank <= 2); source: peptide pulsed on T2 cells (JNFAT assay); copies: + +

[12] = target: T12, HLA-A*02:01 in complex with peptide ALDOA_(216-224) (…) (Homo sapiens, HLA-A*02:01)
T12 construct: HLA class I heavy chain, allele HLA-A*02:01, human; beta-2-microglobulin, human; The presenting allele is assigned by NetMHCpan 4.1 prediction (rank <= 2); source: peptide pulsed on T2 cells (JNFAT assay); copies: + +

[13] = target: T13, HLA-A*02:01 in complex with peptide SHC1_(469-477) (…) (Homo sapiens, HLA-A*02:01)
T13 construct: HLA class I heavy chain, allele HLA-A*02:01, human; beta-2-microglobulin, human; The presenting allele is assigned by NetMHCpan 4.1 prediction (rank <= 2); source: peptide pulsed on T2 cells (JNFAT assay); copies: + +

[14] = target: T14, HLA-A*02:01 in complex with peptide RL5_(117-125) (…) (Homo sapiens, HLA-A*02:01)
T14 construct: HLA class I heavy chain, allele HLA-A*02:01, human; beta-2-microglobulin, human; The presenting allele is assigned by NetMHCpan 4.1 prediction (rank <= 2); source: peptide pulsed on T2 cells (JNFAT assay); copies: + +

[15] = target: T15, HLA-A*02:01 in complex with peptide ARHGEF26_(863-871) (…) (Homo sapiens, HLA-A*02:01)
T15 construct: HLA class I heavy chain, allele HLA-A*02:01, human; beta-2-microglobulin, human; The presenting allele is assigned by NetMHCpan 4.1 prediction (rank <= 2); source: peptide pulsed on T2 cells (JNFAT assay); copies: + +

Measured: binding result

B1: ESK1 antibody (antibody, V domains shown)
VH: QMQLVQSGAEVKEPGESLRISCKGSGYSFTNFWISWVRQMPGKGLEWMGRVDPGYSYSTYSPSFQGHVTISADKSTSTAYLQWNSLKASDTAMYYCARVQYSGYYDWFDPWGQGTLVTVSS
VL: not shown
notes: the constant region of the bait antibody is not described for ESK1
binds: all assays above
